# Experimental data from the RNAGym collection of RNA variant scans (doi:10.1073/pnas.2313332121).
# This sample holds only a part of the variants without activity.
# B1: TPR 5TU (parent)
# chain: GGAUCUUCUCGAUCUAACAAAAAAGACAAAUCUGCCACAAAGCUUGAGAGCAUCUUCGGAUGCAGAGGCGGCAGCCUUCGGUGGCGCGAUAGCGCCAACGUUCUCAACUAUGACACGCAAAACGCGUGCUCCGUUGAAUGGAGUUUAUCAUG
# Variants of: B1
# Assay: polymerase ribozyme fitness, log enrichment relative to wild type (log ratio); higher = more active; in vitro selection for triplet polymerase activity
# Procedure, shortened: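 Genotype fitness is the logarithm of its enrichment divided by wild-type enrichment, using inverse-variance-weighted averages of replicates. That logarithm is base 2. Enrichment was measured by Illumina sequencing of input and output libraries from one triplicate in vitro selection round, with frozen incubation at −7 °C, on PCR-built, transcribed mutant libraries of each subunit of a heterodimeric triplet polymerase ribozyme, retaining genotypes with ≥10 input reads and ≥1 read per output.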
row,Variant,polymerase ribozyme fitness (log ratio)
1,A40G C87G C103A G117U,≤ -4.2
2,C69G G86C A121C,≤ -4.2
3,C8U A30U U44A A97G U101G A113G C132U C149G A150U,≤ -4.2
4,C38A U56G G136C U146C,-3.92
5,U56C G58A G84A U145G,0.113
6,A17G A37U A47U C85U,-1.62
7,C27U G92U G100A A106C G124C A138G,≤ -4.2
8,G48A C87U,-0.447
9,C36U G50U C54U C99U,-4.14
10,C5G A21G U55A C57U A147C,-0.914
11,C14G A40G A41C C54U C85G C99U,≤ -4.2
12,A29G C51G U56A C93A C95G C149G G152A,≤ -4.2
13,G92U G136C,-3.44
14,A21C C35A A39C G100C G136U,≤ -4.2
15,G67A G81A A91C A137C U148C,≤ -4.2
16,U56G G70U C85U U151A,≤ -4.2
17,U7G G11U A16G A24C U31G G34U A98G G117C,≤ -4.2
18,A37U C85A C93U G141C A147C,≤ -4.2
19,A17C A26U A49C,≤ -4.2
20,U45G U53A U56C G84A C125U A137G G140U C149A,≤ -4.2
21,C96G C108A C123G,-3.69

row,Variant,polymerase ribozyme fitness (log ratio)
1,U56A G83U C93G,≤ -4.2
2,U55A U61A C96A C116G,-2.17
3,C87U A150G G152U,≤ -4.2
4,C35A G100A C125G C131G,≤ -4.2
5,C5G C27U C38G G81A U104C A115C,≤ -4.2
6,C32G C105U,≤ -4.2
7,A28U C87G C118G,≤ -4.2
8,A20U C27A U31G A40G G42U C96G A97G,≤ -4.2
9,C8A U55A G84U C85A,≤ -4.2
10,C35U C149U,-1.57
11,G58A U61A G88C G133U,≤ -4.2
12,C123A,-0.404
13,A17U U33G G34C A47G,≤ -4.2
14,U127G A137U,-4.19
15,A39U G74U G81C A91U A98G C99U G124A,≤ -4.2
16,G42A G58A G100C,≤ -4.2
17,G84C A115G,-2.49
18,A47C C63U C79A G80A G86C U102C,≤ -4.2
19,C14A A26U A29G C57G C93A G141C,≤ -4.2
20,G86U C93G,-1.28
21,C8U A19C G50A C96U,≤ -4.2

row,Variant,polymerase ribozyme fitness (log ratio)
1,A47C G59A C72U G81C A89G G128C U134C,≤ -4.2
2,U82G G100U G128A,≤ -4.2
3,A30C A142C U144C,≤ -4.2
4,C18G C85U U101C,-0.76
5,A60C C103A,≤ -4.2
6,G50A G84A U101C G117C U146G,-0.884
7,A91G U139G,-3.56
8,A30G G42U A52C C57A C96A A120G,≤ -4.2
9,U33C A52G G70A G92A A150G,-3.87
10,U7G C63A C96G,≤ -4.2
11,C96U C105G,-2.46
12,U56C C75A G88C C99G,≤ -4.2
13,A20U C27U G42U A52C U55A C95G C96U,≤ -4.2
14,A20G G34A C118G A121C,-3.83
15,C57U U61A G81C A107U,≤ -4.2
16,C32A A39U G58A C72U G80U G83A,≤ -4.2
17,A39U C93A C105G A113U C114G,≤ -4.2
18,C63U G65A A73U A115G U134G,≤ -4.2
19,A19G A29U C95U A122G,≤ -4.2
20,A29U A66U C79A G83A C96A A142U,≤ -4.2
21,A89G C131A,-2.5

row,Variant,polymerase ribozyme fitness (log ratio)
1,C10A A106G G126U,≤ -4.2
2,A12U G81C G84A A115U,≤ -4.2
3,A21G A40U,0.957
4,A16G G94A G143C,-3.22
5,G83U A107U G141U,≤ -4.2
6,C76G C87G U102G C108A,≤ -4.2
7,C10G U77A C93U U144G,≤ -4.2
8,C5G U9C A16C A28G A30U C32G C35A G59U G92U C105U,≤ -4.2
9,A16U A19U A26C A37C G74C A89C G94A C108U A113G G136A,≤ -4.2
10,G50A G58C C99A,≤ -4.2
11,G50C C54U,-2.6
12,A16C U56C C87U,-2.13
13,G84U A142G,-3.27
14,C51U G59C C72A,≤ -4.2
15,G84U C99G U148A,≤ -4.2
16,U53A G62A G86U,-2.24
17,A20U C54A A106C,-3.99
18,G50U C87U A89G,-3.95
19,A138U U151C,-4.01
20,G136C U151G,≤ -4.2
21,U4A C18U G67A C93G G124A,≤ -4.2
